Source: IntAct's records for PubMed 28258151

B1: Complement factor H (Homo sapiens), P08603 (parent)
chain: MRLLAKIICLMLWAICVAEDCNELPPRRNTEILTGSWSDQTYPEGTQAIYKCRPGYRSLGNVIMVCRKGEWVALNPLRKCQKRPCGHPGDTPFGTFTLTGGNVFEYGVKAVYTCNEGYQLLGEINYRECDTDGWTNDIPICEVVKCLPVTAPENGKIVSSAMEPDREYHFGQAVRFVCNSGYKIEGDEEMHCSDDGFWSKEKPKCVEISCKSPDVINGSPISQKIIYKENERFQYKCNMGYEYSERGDAVCTESGWRPLPSCEEKSCDNPYIPNGDYSPLRIKHRTGDEITYQCRNGFYPATRGNTAKCTSTGWIPAPRCTLKPCDYPDIKHGGLYHENMRRPYFPVAVGKYYSYYCDEHFETPSGSYWDHIHCTQDGWSPAVPCLRKCYFPYLENGYNQNYGRKFVQGKSIDVACHPGYALPKAQTTVTCMENGWSPTPRCIRVKTCSKSSIDIENGFISESQYTYALKEKAKYQCKLGYVTADGETSGSITCGKDGWSAQPTCIKSCDIPVFMNARTKNDFTWFKLNDTLDYECHDGYESNTGSTTGSIVCGYNGWSDLPICYERECELPKIDVHLVPDRKKDQYKVGEVLKFSCKPGFTIVGPNSVQCYHFGLSPDLPICKEQVQSCGPPPELLNGNVKEKTKEEYGHSEVVEYYCNPRFLMKGPNKIQCVDGEWTTLPVCIVEESTCGDIPELEHGWAQLSSPPYYYGDSVEFNCSESFTMIGHRSITCIHGVWTQLPQCVAIDKLKKCKSSNLIILEEHLKNKKEFDHNSNIRYRCRGKEGWIHTVCINGRWDPEVNCSMAQIQLCPPPPQIPNSHNMTTTLNYRDGEKVSVLCQENYLIQEGEEITCKDGRWQSIPLCVEKIPCSQPPQIEHGTINSSRSSQESYAHGTKLSYTCEGGFRISEENETTCYMGKWSSPPQCEGLPCKSPPEISHGVVAHMSDSYQYGEEVTYKCFEGFGIDGPAIAKCLGEKWSHPPSCIKTDCLSLPSFENAIPMGEKKDVYKAGEQVTYTCATYYKMDGASNVTCINSRWTGRPTCRDTSCVNPPTVQNAYIVSRQMSKYPSGERVRYQCRSPYEMFGDEEVMCLNGNWTEPPQCKDSTGKCGPPPPIDNGDITSFPLSVYAPASSVEYQCQNLYQLEGNKRITCRNGQWSEPPKCLHPCVISREIMENYNIALRWTAKQKLYSRTGESVEFVCKRGYRLSSRSHTLRTTCWDGKLEYPTCAKR

Variants of: B1
Conditions: with sdre_staam sdrE

| Variant | effect of a mutation on the interaction |
| --- | --- |
| S1209A | decreasing interaction |
| T1216A | increasing interaction |
| R1210A | increasing interaction |
| L1207A | decreasing interaction |
| T1217A | with no effect |
| Y1225A | increasing interaction |
| S1208A | disrupting interaction |
| D1220A | with no effect |
| E1224A | increasing interaction |
| S1211A | decreasing interaction |
| R1215A | with no effect |
| P1226A | decreasing interaction |
| H1212A | increasing interaction |
| C1218A | increasing interaction |
| T1213A | increasing interaction |
| R1206A | disrupting interaction |
| K1222A | with no effect |
| L1214A | increasing interaction |
| W1219A | with no effect |
| L1223A | increasing interaction |
